Test results: patent publication US6602854B1, “Branched multimeric Apo A-I agonist compounds” (priority 1997, dated 2003)
Read-outs that look alike come from different tables or passages of the source.

Columns and labels:
VLDL = test system: VLDL
Experimental: (§1) The association of peptide 4 (SEQ ID NO:4) with human lipoprotein fractions was determined by incubating ^14C-labeled peptide 4 (SEQ ID NO:4) with each lipoprotein class (HDL, LDL and VLDL) and a mixture of the different lipoprotein classes.
(§2) HDL, LDL and VLDL were isolated by KBr density gradient ultracentrifugation at d=1.21 g/ml and purified by FPLC on a Superose 6B column size exclusion column (chromatography was carried out with a flow rate of 0.7 ml/min. and a running buffer of 10 mM Tris (pH 8), 115 mM NaCl, 2 mM EDTA and 0.01% NaN3). ^14C-labeled peptide 4 was incubated with HDL, LDL and VLDL at a peptide:phospholipid ratio of 1:5 (mass ratio) for 2 h at 37° C. The required amount of lipoprotein (volumes based on amount needed to yield 1000 μg) was mixed with 0.2 ml of peptide stock solution (1 mg/ml) and the solution was brought up to 2.2 ml using 0.9% of NaCl according to TABLE XIII:
(§3) After incubating for 2 hr. at 37° C., an aliquot (0.1 ml) was removed for liquid scintillation counting to determine the total radioactivity, the density of the remaining incubation mixture was adjusted to 1.21 g/ml with KBr, and the samples centrifuged at 100,000 rpm (300,000 g) for 24 hours at 4° C. in a TLA 100.3 rotor using a Beckman tabletop ultracentrifuge. The resulting supernatant was fractionated by removing 0.3 ml aliquots from the top of each sample for a total of 5 fractions, and 0.05 ml of each fraction was used for liquid scintillation counting. The top two fractions contain the floating lipoproteins, the other fractions (3-5) correspond to proteins/peptides in solution.

LDL = test system: LDL
Experimental: as §1, §2, §3

[1] = test system: mixture of HDL, LDL and VLDL
Experimental: as §1, §2, §3

HDL = test system: HDL
Experimental: as §1, §2, §3

[2] = Control (peptide without lipoprotein)

In the case of PVLDLFRELLNELLEALKQKLK [peptide 4], the Recovery (VLDL; VLDL/Peptide) is reported as 75%, the “radioactivity Total” value (VLDL; VLDL/Peptide) is reported as 73280 and the “radioactivity Total before centrifugation” value (VLDL; VLDL/Peptide) is reported as 97306. The “radioactivity in Fraction 1” value (VLDL; VLDL/Peptide) was 42920, the “radioactivity in Fraction 2” value (VLDL; VLDL/Peptide) was 19280 and the “radioactivity in Fraction 3” value (VLDL; VLDL/Peptide) was 3930. The “radioactivity in Fraction 4” value (VLDL; VLDL/Peptide) was 2600, the “radioactivity in Fraction 5” value (VLDL; VLDL/Peptide) was 4550 and the “share of total radioactivity in fractions 1 and 2 (associated with lipoprotein)” value (VLDL; incubation with isolated VLDL) was 85%. The Recovery (LDL; LDL/Peptide) was 89%, the “radioactivity Total” value (LDL; LDL/Peptide) was 89330 and the “radioactivity Total before centrifugation” value (LDL; LDL/Peptide) was 100452. The “radioactivity in Fraction 1” value (LDL; LDL/Peptide) was 43740, the “radioactivity in Fraction 2” value (LDL; LDL/Peptide) was 15140 and the “radioactivity in Fraction 3” value (LDL; LDL/Peptide) was 11880. For the same sequence, the “radioactivity in Fraction 4” value (LDL; LDL/Peptide) was 10860, the “radioactivity in Fraction 5” value (LDL; LDL/Peptide) was 7710 and the “share of total radioactivity in fractions 1 and 2 (associated with lipoprotein)” value (LDL; incubation with isolated LDL) was 66%. The Recovery [1, 2] was 89%, the “radioactivity Total” value [1, 2] was 79170 and the “radioactivity Total before centrifugation” value [1, 2] was 88550. The “radioactivity in Fraction 1” value [1, 2] was 650, the “radioactivity in Fraction 2” value [1, 2] was 1000 and the “radioactivity in Fraction 3” value [1, 2] was 6590. For the same sequence, the “radioactivity in Fraction 4” value [1, 2] was 36550, the “radioactivity in Fraction 5” value [1, 2] was 34380 and the “FPLC analysis of the LP/peptide incubation mixture (in words)” value ([1]; LP/Peptide) was “nearly all of the ^14C-labeled peptide 4 was associated with the HDL fraction”. For the same sequence, the Recovery ([1]; LP/Peptide) was 87%, the “radioactivity Total” value ([1]; LP/Peptide) was 83650 and the “radioactivity Total before centrifugation” value ([1]; LP/Peptide) was 96646. For the same sequence, the “radioactivity in Fraction 2” value ([1]; LP/Peptide) was 12990, the “radioactivity in Fraction 3” value ([1]; LP/Peptide) was 3810 and the “radioactivity in Fraction 4” value ([1]; LP/Peptide) was 1510. The “radioactivity in Fraction 5” value ([1]; LP/Peptide) was 5090, the “radioactivity in Fraction 1” value ([1]; LP/Peptide (HDL, LDL and VLDL)) was 60250 and the “labeled peptide associated with the lipoprotein fraction” value ([1]; LP/Peptide, all lipoprotein fractions) was 88%. The Recovery (HDL; HDL/Peptide) was 91%, the “radioactivity Total” value (HDL; HDL/Peptide) was 89970 and the “radioactivity Total before centrifugation” value (HDL; HDL/Peptide) was 98494. The “radioactivity in Fraction 1” value (HDL; HDL/Peptide) was 61510, the “radioactivity in Fraction 2” value (HDL; HDL/Peptide) was 17620 and the “radioactivity in Fraction 3” value (HDL; HDL/Peptide) was 2260. For the same sequence, the “radioactivity in Fraction 4” value (HDL; HDL/Peptide) was 3130, the “radioactivity in Fraction 5” value (HDL; HDL/Peptide) was 5450 and the “share of total radioactivity in fractions 1 and 2 (associated with lipoprotein)” value (HDL; incubation with isolated HDL) was 88%.
